Source: PMC10592561

Target: Complement C3b, human, purified (human) (UniProt P01024)
Test: SPR

Kd [µM] | Substance
6.8 | Factor H CCP1-4, wild type (domain or fragment)
64.4 | Factor H CCP1-4 variant R166Q (domain or fragment)
